Reference: the supplement of paper PMC9112550, “Optimization of the antimicrobial peptide Bac7 by deep mutational scanning” (BMC Biology, 2022)

Test system: Escherichia coli TOP10
Assay: shrunken log2 fold change of peptide-encoding DNA abundance (4.5 h post-induction vs induction); higher = less antimicrobial activity (less host growth inhibition)
Conditions: time post-induction: 4.5 h; library: site-saturation at positions 5, 18, 19, 20
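Further: peptides expressed intracellularly from a pBAD plasmid library in pooled LB shake-flask culture, induced with 0.3% L-arabinose, DNA abundance read by NGS, three biological replicates, DESeq2 with apeglm shrinkage.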

Sequence	shrunken log2 fold change
RRIRRRPPRLPRPRPRPAMEPRP	0.019
RRIRSRPPRLPRPRPRPTTNPRP	0.00407
RRIRVRPPRLPRPRPRPICQPRP	-0.188
RRIRTRPPRLPRPRPRPMWWPRP	-0.0168
RRIRFRPPRLPRPRPRPNSGPRP	-0.166
RRIRQRPPRLPRPRPRPDFPPRP	0.065
RRIRRRPPRLPRPRPRPYRYPRP	0.0464
RRIRTRPPRLPRPRPRPWEPPRP	-0.0542
RRIRQRPPRLPRPRPRPRLEPRP	0.109
RRIRARPPRLPRPRPRPCADPRP	0.734
RRIRWRPPRLPRPRPRPFVVPRP	-0.242
RRIRNRPPRLPRPRPRPKHWPRP	0.0916
RRIRWRPPRLPRPRPRPQGGPRP	-0.0626
RRIRARPPRLPRPRPRPCWQPRP	0.096
RRIRHRPPRLPRPRPRPWYGPRP	-0.779
RRIRKRPPRLPRPRPRPYTQPRP	-0.0811
RRIRVRPPRLPRPRPRPMFLPRP	-0.557
RRIRARPPRLPRPRPRPEGVPRP	1.1
RRIRNRPPRLPRPRPRPYGIPRP	-0.00992
RRIRIRPPRLPRPRPRPDRPPRP	-0.0549
RRIRMRPPRLPRPRPRPCKAPRP	0.173
RRIRERPPRLPRPRPRPNHLPRP	0.0486
RRIRLRPPRLPRPRPRPRKNPRP	0.0496
RRIRFRPPRLPRPRPRPPIMPRP	-0.451
RRIRYRPPRLPRPRPRPNFYPRP	-0.689

Sequence	shrunken log2 fold change
RRIRNRPPRLPRPRPRPHTHPRP	-0.438
RRIRPRPPRLPRPRPRPHVPPRP	3.25
RRIRGRPPRLPRPRPRPRNRPRP	0.637
RRIRCRPPRLPRPRPRPSPYPRP	-0.302
RRIRIRPPRLPRPRPRPAGFPRP	0.0153
RRIRERPPRLPRPRPRPISEPRP	-0.0562
RRIRTRPPRLPRPRPRPMEIPRP	-0.00196
RRIRRRPPRLPRPRPRPEIAPRP	0.84
RRIRLRPPRLPRPRPRPWEAPRP	-0.229
RRIRERPPRLPRPRPRPKWRPRP	-0.102
RRIRHRPPRLPRPRPRPCCNPRP	0.0722
RRIRLRPPRLPRPRPRPQQDPRP	-0.29
RRIRWRPPRLPRPRPRPVDTPRP	0.00157
RRIRSRPPRLPRPRPRPHKEPRP	-0.00927
RRIRFRPPRLPRPRPRPMNIPRP	-0.192
RRIRMRPPRLPRPRPRPEWWPRP	-0.00783
RRIRHRPPRLPRPRPRPDRTPRP	0.0869
RRIRCRPPRLPRPRPRPMMTPRP	0.00323
RRIRRRPPRLPRPRPRPKYTPRP	-0.000338
RRIRVRPPRLPRPRPRPARWPRP	0.586
RRIRVRPPRLPRPRPRPILHPRP	1.12
RRIRARPPRLPRPRPRPLETPRP	0.9
RRIRIRPPRLPRPRPRPKGWPRP	0.364
RRIRQRPPRLPRPRPRPDMDPRP	-0.0896
RRIRQRPPRLPRPRPRPNSWPRP	0.0283

Sequence	shrunken log2 fold change
RRIRGRPPRLPRPRPRPEILPRP	1.22
RRIRRRPPRLPRPRPRPQQHPRP	-0.0327
RRIRPRPPRLPRPRPRPSEYPRP	-0.366
RRIRCRPPRLPRPRPRPTNWPRP	-0.0072
RRIRCRPPRLPRPRPRPKVIPRP	-0.297
RRIRQRPPRLPRPRPRPCREPRP	-0.0541
RRIRIRPPRLPRPRPRPQQVPRP	0.00944
RRIRKRPPRLPRPRPRPFEEPRP	0.148
RRIRCRPPRLPRPRPRPSMAPRP	-0.224
RRIRKRPPRLPRPRPRPCIHPRP	-0.124
RRIRGRPPRLPRPRPRPHLDPRP	0.34
RRIRGRPPRLPRPRPRPKVEPRP	0.615
RRIRSRPPRLPRPRPRPETGPRP	0.105
RRIRRRPPRLPRPRPRPFFHPRP	0.154
RRIRARPPRLPRPRPRPREKPRP	0.383
RRIRGRPPRLPRPRPRPIDHPRP	0.115
RRIRDRPPRLPRPRPRPLKPPRP	-0.00274
RRIRTRPPRLPRPRPRPHPQPRP	-0.116
RRIRMRPPRLPRPRPRPTPGPRP	1.13
RRIRARPPRLPRPRPRPTTIPRP	0.0651
RRIRIRPPRLPRPRPRPKLKPRP	-0.688
RRIRVRPPRLPRPRPRPLVPPRP	-0.0493
RRIRQRPPRLPRPRPRPHEHPRP	0.0439
RRIRTRPPRLPRPRPRPHSPPRP	-0.278
RRIRRRPPRLPRPRPRPCDNPRP	0.0406

Sequence	shrunken log2 fold change
RRIRMRPPRLPRPRPRPKEHPRP	0.617
RRIRTRPPRLPRPRPRPYMCPRP	-0.827
RRIRFRPPRLPRPRPRPQEYPRP	-0.541
RRIRARPPRLPRPRPRPYTGPRP	-0.645
RRIRPRPPRLPRPRPRPFTRPRP	-0.00841
RRIRRRPPRLPRPRPRPLEFPRP	-0.0524
RRIRPRPPRLPRPRPRPMLWPRP	0.172
RRIRARPPRLPRPRPRPDTGPRP	-0.0932
RRIRKRPPRLPRPRPRPKTFPRP	-0.124
RRIRRRPPRLPRPRPRPVLCPRP	0.569
RRIRYRPPRLPRPRPRPQWTPRP	-0.0155
RRIRPRPPRLPRPRPRPNELPRP	-0.313
RRIRIRPPRLPRPRPRPSKKPRP	-0.229
RRIRFRPPRLPRPRPRPEALPRP	0.0209
RRIRIRPPRLPRPRPRPSTWPRP	-0.481
RRIRIRPPRLPRPRPRPMSRPRP	-0.24
RRIRQRPPRLPRPRPRPDYMPRP	-0.453
RRIRYRPPRLPRPRPRPFCFPRP	-0.114
RRIRNRPPRLPRPRPRPSATPRP	-0.0839
RRIRHRPPRLPRPRPRPKIVPRP	0.00911
RRIRDRPPRLPRPRPRPDSMPRP	0.00619
RRIRNRPPRLPRPRPRPNWMPRP	-0.199
RRIRNRPPRLPRPRPRPHVMPRP	-0.503
RRIRARPPRLPRPRPRPGVCPRP	0.571
RRIRSRPPRLPRPRPRPGTPPRP	0.0374

Sequence	shrunken log2 fold change
RRIRMRPPRLPRPRPRPCVEPRP	0.755
RRIRTRPPRLPRPRPRPSFLPRP	-0.586
RRIRNRPPRLPRPRPRPQGCPRP	0.0942
RRIRERPPRLPRPRPRPPSVPRP	-0.126
RRIRRRPPRLPRPRPRPYMFPRP	-0.448
RRIRDRPPRLPRPRPRPFPRPRP	-0.135
RRIRWRPPRLPRPRPRPGWWPRP	0.336
RRIRSRPPRLPRPRPRPIKDPRP	-0.224
RRIRGRPPRLPRPRPRPHTRPRP	0.559
RRIRFRPPRLPRPRPRPMHFPRP	-0.136
RRIRCRPPRLPRPRPRPMRNPRP	0.185
RRIRPRPPRLPRPRPRPNDIPRP	-0.632
RRIRGRPPRLPRPRPRPSFTPRP	0.079
RRIRDRPPRLPRPRPRPSTMPRP	0.0367
RRIRFRPPRLPRPRPRPMSPPRP	-0.0304
RRIRFRPPRLPRPRPRPGCLPRP	-0.0626
RRIRHRPPRLPRPRPRPNRTPRP	0.031
RRIRLRPPRLPRPRPRPTGPPRP	0.298
RRIRARPPRLPRPRPRPPIRPRP	-0.131
RRIRQRPPRLPRPRPRPYQQPRP	-0.0082
RRIRGRPPRLPRPRPRPMGTPRP	0.48
RRIRVRPPRLPRPRPRPTTKPRP	-0.162
RRIRGRPPRLPRPRPRPAWGPRP	0.268
RRIRRRPPRLPRPRPRPKGWPRP	0.439
RRIRRRPPRLPRPRPRPMEIPRP	-0.0055

Sequence	shrunken log2 fold change
RRIRFRPPRLPRPRPRPRMNPRP	-0.173
RRIRRRPPRLPRPRPRPNCGPRP	0.315
RRIRLRPPRLPRPRPRPDLYPRP	-0.0419
RRIRNRPPRLPRPRPRPTCEPRP	-0.0176
RRIRSRPPRLPRPRPRPECQPRP	-0.00188
RRIRQRPPRLPRPRPRPATTPRP	0.351
RRIRMRPPRLPRPRPRPHNNPRP	-0.153
RRIRHRPPRLPRPRPRPSFAPRP	0.0263
RRIRIRPPRLPRPRPRPDKMPRP	-0.473
RRIRDRPPRLPRPRPRPYSKPRP	0.0519
RRIRPRPPRLPRPRPRPFGWPRP	0.328
RRIRYRPPRLPRPRPRPFVDPRP	-0.0498
RRIRDRPPRLPRPRPRPKDTPRP	0.0607
RRIRARPPRLPRPRPRPLNTPRP	-0.169
RRIRWRPPRLPRPRPRPWVDPRP	-0.119
RRIRERPPRLPRPRPRPPGPPRP	0.478
RRIRARPPRLPRPRPRPHYSPRP	0.141
RRIRQRPPRLPRPRPRPHAGPRP	-0.084
RRIRFRPPRLPRPRPRPQRQPRP	-0.064
RRIRCRPPRLPRPRPRPTLPPRP	0.356
RRIRKRPPRLPRPRPRPFKSPRP	-0.294
RRIRYRPPRLPRPRPRPIAIPRP	-0.217
RRIRTRPPRLPRPRPRPIPDPRP	-0.32
RRIRNRPPRLPRPRPRPCQDPRP	-0.0893
RRIRFRPPRLPRPRPRPPKRPRP	0.467
